Assay [1] has as its target His-survivin (UniProt O15392). In words: pull-down (quantification of Coomassie-stained SDS-PAGE). The following applies: mean ± SEM of three independent experiments; parent: est. 1.0; read off a plot.
Assay [2] has as its target Rod-B phosphorylated by His-Aurora-B. The experiment in a line: co-sedimentation; filament disassembly assay with His-Aurora-B; Rod-B proteins with recombinant His-Aurora-B in kinase buffer (20 mM Tris pH 7.5, 10 mM MgCl2, 1 mM DTT, 50 μM ATP), 60 min at 30 °C, then high-speed centrifugation; filaments to nonfilamentous fraction.
The target in assay [3] is Rod-B. In words: co-sedimentation; filament disassembly assay without His-Aurora-B; Rod-B proteins in kinase buffer (20 mM Tris pH 7.5, 10 mM MgCl2, 1 mM DTT, 50 μM ATP), 60 min at 30 °C, then high-speed centrifugation; filaments to nonfilamentous fraction.
Assay [4] addresses His-survivin (UniProt O15392). The experiment in a line: pull-down; direct pull-down; His-survivin proteins (40-45 μg) held on Ni2+-NTA beads, Rod-B proteins (40-45 μg) added; Buffer B: 20 mM Tris-HCl pH 8, 275 mM NaCl, 5% glycerol, 1% NP-40, 30 mM imidazole; 4 °C; eluted with 250 mM imidazole; Coomassie-stained SDS-PAGE.
Assay [5] concerns the target Rod-B^T1847A. In words: co-sedimentation; filament disassembly assay without His-Aurora-B; Rod-B proteins in kinase buffer (20 mM Tris pH 7.5, 10 mM MgCl2, 1 mM DTT, 50 μM ATP), 60 min at 30 °C, then high-speed centrifugation; filaments to nonfilamentous fraction.
Assay [6] concerns the target Rod-B^T1847A. In words: co-sedimentation; filament disassembly assay with His-Aurora-B; Rod-B proteins with recombinant His-Aurora-B in kinase buffer (20 mM Tris pH 7.5, 10 mM MgCl2, 1 mM DTT, 50 μM ATP), 60 min at 30 °C, then high-speed centrifugation; filaments to nonfilamentous fraction.

Chain of Rod-B (P35580 whole entry): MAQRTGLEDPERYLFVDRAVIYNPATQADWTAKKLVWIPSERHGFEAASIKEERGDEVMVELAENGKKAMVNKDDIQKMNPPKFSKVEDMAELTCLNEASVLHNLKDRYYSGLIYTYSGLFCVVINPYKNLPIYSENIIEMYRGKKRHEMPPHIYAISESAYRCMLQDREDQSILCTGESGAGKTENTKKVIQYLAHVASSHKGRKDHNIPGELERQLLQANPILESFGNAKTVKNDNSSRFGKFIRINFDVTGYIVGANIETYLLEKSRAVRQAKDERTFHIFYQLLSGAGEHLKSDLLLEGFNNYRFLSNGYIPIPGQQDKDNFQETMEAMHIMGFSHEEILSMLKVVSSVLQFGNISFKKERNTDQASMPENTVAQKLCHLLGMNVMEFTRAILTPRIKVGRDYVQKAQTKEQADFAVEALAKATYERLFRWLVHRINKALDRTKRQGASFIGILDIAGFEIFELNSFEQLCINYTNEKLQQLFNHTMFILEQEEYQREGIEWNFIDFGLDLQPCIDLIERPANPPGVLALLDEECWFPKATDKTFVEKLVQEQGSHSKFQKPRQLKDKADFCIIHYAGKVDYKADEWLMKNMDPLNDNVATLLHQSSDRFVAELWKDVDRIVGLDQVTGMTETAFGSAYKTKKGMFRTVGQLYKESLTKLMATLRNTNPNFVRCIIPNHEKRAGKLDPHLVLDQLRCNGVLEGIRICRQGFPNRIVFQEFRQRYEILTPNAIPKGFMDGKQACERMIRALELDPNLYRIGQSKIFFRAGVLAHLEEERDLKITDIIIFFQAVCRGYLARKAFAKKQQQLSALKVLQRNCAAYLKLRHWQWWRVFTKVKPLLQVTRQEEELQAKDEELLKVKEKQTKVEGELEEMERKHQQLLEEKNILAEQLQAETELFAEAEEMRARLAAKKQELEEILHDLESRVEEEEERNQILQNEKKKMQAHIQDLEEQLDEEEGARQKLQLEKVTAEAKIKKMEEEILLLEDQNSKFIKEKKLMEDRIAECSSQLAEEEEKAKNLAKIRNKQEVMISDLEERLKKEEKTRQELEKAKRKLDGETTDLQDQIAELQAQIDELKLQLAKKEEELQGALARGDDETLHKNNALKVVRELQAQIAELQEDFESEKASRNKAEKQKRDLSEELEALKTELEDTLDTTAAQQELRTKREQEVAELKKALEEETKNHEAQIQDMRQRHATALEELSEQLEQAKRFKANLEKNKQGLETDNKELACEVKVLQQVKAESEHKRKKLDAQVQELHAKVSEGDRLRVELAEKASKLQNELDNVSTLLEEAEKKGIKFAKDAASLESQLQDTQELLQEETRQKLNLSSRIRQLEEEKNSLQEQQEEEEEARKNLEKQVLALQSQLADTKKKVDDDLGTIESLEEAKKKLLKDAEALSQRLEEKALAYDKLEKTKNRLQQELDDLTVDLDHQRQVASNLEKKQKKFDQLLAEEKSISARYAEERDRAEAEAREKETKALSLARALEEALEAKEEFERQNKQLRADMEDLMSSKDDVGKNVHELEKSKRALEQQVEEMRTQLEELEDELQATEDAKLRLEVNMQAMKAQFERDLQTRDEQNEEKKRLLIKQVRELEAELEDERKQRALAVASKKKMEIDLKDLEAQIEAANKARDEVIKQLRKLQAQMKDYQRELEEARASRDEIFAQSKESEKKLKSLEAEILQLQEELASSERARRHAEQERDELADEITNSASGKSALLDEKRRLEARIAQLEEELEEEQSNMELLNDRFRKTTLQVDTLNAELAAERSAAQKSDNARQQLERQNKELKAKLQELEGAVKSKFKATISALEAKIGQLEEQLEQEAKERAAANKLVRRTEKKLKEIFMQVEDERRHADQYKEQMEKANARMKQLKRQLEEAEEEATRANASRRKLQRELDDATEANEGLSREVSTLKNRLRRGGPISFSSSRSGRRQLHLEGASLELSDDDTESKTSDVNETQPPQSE
Chain of Rod-B phosphorylated by His-Aurora-B (P35580 whole entry): as above

In the case of Rod-B T1847A, in assay [1], the ratio to parent stood at 1.1.
Turning to “Rod-B phosphorylated by His-Aurora-B (domain or fragment)”, the percent in the nonfilamentous fraction in assay [2] was 42%.
Rod-B (domain or fragment) yielded a percent in the nonfilamentous fraction in assay [3] of 28%.
In assay [4], Rod-B^T1847D (domain or fragment) yielded a percent reduction of binding to survivin relative to Rod-B of 80%.
On to Rod-B^T1847A (domain or fragment), for which the percent in the nonfilamentous fraction worked out at 34% in assay [5] and 36.8% in assay [6].

These data come from article PMC8385403.
